9 substances from paper PMC2174279 can be followed below.

Assay [1] deals with Arc40p-HA (S. cerevisiae) (UniProt P38328). Description: co-IP.
Another assay has as its target Bee1p-HA (S. cerevisiae). Description: co-IP.
For assay [2], the target named is Bee1p (1-633) (S. cerevisiae). Description: two-hybrid.
The target of assay [3] is Arc40p (LexA two-hybrid bait) (S. cerevisiae) (UniProt P38328). Put plainly: two-hybrid.
Assay [4] addresses Bee1p (166-633) (S. cerevisiae). Put plainly: two-hybrid.
The target in assay [5] is peptide PRP2 (…), LexA bait. Description: two-hybrid.
Assay [6] concerns the target peptide PRP2-1 (…), LexA bait. Put plainly: two-hybrid.
Assay [7] deals with Bee1p (1-165) (S. cerevisiae). Description: two-hybrid.
The target in assay [8] is Arc19p (LexA two-hybrid bait) (S. cerevisiae) (UniProt P33204). Description: two-hybrid.

Consider “Myo3p(SH3-W1157S) (from UniProt P36006 1-1272) (natural protein)”, for which the percent coimmunoprecipitated in assay [1] was found to be 0.1%.
Substance “Myo3pΔAD (from UniProt P36006 1-1188) (domain or fragment)” displayed a percent coimmunoprecipitated in the assay with Bee1p-HA (S. cerevisiae) of 1%.
For “Myo3p-SH3 (1118-1188) (from UniProt P36006 1118-1188) (domain or fragment)”, the LacZ expression (two-hybrid) in assay [2] was 1760 Miller units.
“Bee1p-WH2-AD (531-633) (domain or fragment)” yielded a LacZ expression (two-hybrid) in [3] of 18 Miller units.
On the same count and under the same terms, next, “Myo3p-SH3(W1157S)-AD (1118-1271) (from UniProt P36006 1118-1271) (domain or fragment)”: 366 Miller units; “Myo3p-AD (1182-1271) (from UniProt P36006 1182-1271) (domain or fragment)”: 151 Miller units.
“Myo3p-SH3-AD (1118-1271) (from UniProt P36006 1118-1271) (domain or fragment)”: the LacZ expression (two-hybrid) in [4] was found to be 113 Miller units; in assay [3], 458 Miller units; in [5] it was 210 Miller units; in assay [6] it was 219 Miller units; in assay [7] it was 1200 Miller units; in assay [8] it was 152 Miller units. Also, the LacZ expression (two-hybrid) in assay [2] was 715 Miller units.
“Myo3p-AD-32 (1239-1271) (from UniProt P36006 1239-1271) (domain or fragment)” had a LacZ expression (two-hybrid) in assay [3] of 25 Miller units.
As for “Myo3p (from UniProt P36006 1-1272) (natural protein)”, the percent of the total Myo3p in the extract coimmunoprecipitated (with Bee1p-HA (S. cerevisiae); in assay [1]) was 1% in each case.
